Measured values as given in paper PMC8233713, “Direct Interaction of Polar Scaffolding Protein Wag31 with Nucleoid-Associated Protein Rv3852 Regulates Its Polar Localization” (Cells, 2021).

Legend:
[1] = biological target: T1, Wag31 (recombinant, from Wag31-pet28a) (Mycobacterium tuberculosis, UniProt P9WMU1 1-260); test: co-IP; conditions: both partners purified
T1 sequence: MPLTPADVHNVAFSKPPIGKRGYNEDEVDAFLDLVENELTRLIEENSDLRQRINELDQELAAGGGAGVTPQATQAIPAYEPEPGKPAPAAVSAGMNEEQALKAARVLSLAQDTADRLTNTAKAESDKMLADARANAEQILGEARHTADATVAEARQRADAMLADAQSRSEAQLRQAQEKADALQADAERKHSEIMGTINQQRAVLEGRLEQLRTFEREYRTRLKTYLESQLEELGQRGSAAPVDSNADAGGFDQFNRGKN

[2] = biological target: T1, Wag31 (recombinant, from Wag31-pet28a); test: pull-down; conditions: both partners purified

B1: 6X His-tagged Rv3852 protein (natural protein)
chain: MPDPQDRPDSEPSDASTPPAKKLPAKKAAKKAPARKTPAKKAPAKKTPAKGAKSAPPKPAEAPVSLQQRIETNGQLAAAAKDAAAQAKSTVEGANDALARNASVPAPSHSPVPLIVAVTLSLLALLLIRQLRRR
notes: also called hexa-histidine tagged Rv3852
B1: binds [1].

B2: Rv3852-MBP (natural protein)
chain: MPDPQDRPDSEPSDASTPPAKKLPAKKAAKKAPARKTPAKKAPAKKTPAKGAKSAPPKPAEAPVSLQQRIETNGQLAAAAKDAAAQAKSTVEGANDALARNASVPAPSHSPVPLIVAVTLSLLALLLIRQLRRR
B2: binds [2].
